Test results as given in the nanobody polyreactivity screen of Harvey et al. (2022).

Assay: yeast display, Sf9 membrane polyspecificity reagent, FACS + sequencing; frameworks hold sequencing errors
Procedure, shortened: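 Genes from sorted yeast were amplified by colony PCR, read by MiSeq 2 × 250 sequencing and filtered on CDR length. These cells carried a synthetic nanobody library in Saccharomyces cerevisiae BJ5465 and were sorted by FACS into low and high (top ~1%) gates on anti-HA and streptavidin fluorescence. Polyreactivity is labelled according to the gate of origin.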

| Sequence | polyreactivity (PSR sort gate) |
| --- | --- |
| QVQLVESGGGLVQAGCSLRLSCAASGFIFDDYDMGWYRQAPGKERELVAAISWSGGSTYYADSVKGRFTISRDNAKNTVYLQMNSLKPEDTAVFYCNADYYRSRYDYWGQGTQVTVSS | high polyreactivity |
| QVQLVESGGGLVQAGCSLRLSCAASGGTFYANAKGRYRQAPGIVRELVAAITSGGSTNYADSVKGRFTISRDNAKNTVYLEINSLKPEDTAVYYCNASAQRRYWHSYFRRYDYWGQGTQVTVSS | low polyreactivity |
| QVQLVESGGGLVQAGCSLRLSCAASGITFYGNAMGSYRQAPGKERELVAAISRRGGSTYYADSVKGRFTSSRDNAKNSVYLQMISLKPEDTAVYYCAARYYSWSFRFDYWGQGTQLTVSS | high polyreactivity |
| QVQLVESGGGLVQAGCSLRLSCAASGRIFGTNDMGWYRQAPGKERELVAAINGSDSSTYYADSVKGRFTISRDNAKNTVYFQMNSLKPEDTAVYYCNADWSGAPERSTDGYDYWGQGTQVTVSS | low polyreactivity |
| QVQLVESGGGLVQAGCSLRLSCAASGRIFLVNAMGWYRQAPGKERELVAAISYRSGRTYYADSVKGRFTISRDNAKNTVYLQMNSLKPEDTAVYYCAAYTNVADMEYWGQGTQVTVSS | high polyreactivity |
| QVQLVESGGGLVQAGCSLRLSCAASGRIFNDYAMGWYRQAPGKERELVAGISRRGGSTSYADSVKGRFTISRDNAKNTDYLQMNSQKAEDTAVYYCNADYWYDYYSTEYDYWGQGTQVTVSS | low polyreactivity |
| QVQLVESGGGLVQAGCSLRLSCAASGRIFWVNAMGWYRQAPGKERELVAVISSGGSTHYADSVKGRFTISRDNAKYTVSLQMNSLKPEDTAGYYCAADRYYVGYYYWGQGTQVTVSS | low polyreactivity |
| QVQLVESGGGLVQAGCSLRLSCAASGRIFYLYTLGWYRQAPGKERELVAAITRAGRTYYADSVKGRFTISRDNAKNTFYLQMNSLKPEDTGVYYCAAAFLSRVQGYDSWGQGTQVTVSS | high polyreactivity |
| QVQLVESGGGLVQAGCSLRLSCAASGRTFCYNSMGLYRQAPGKERELVAAISTSGGSTYYADSVKGRFTISRDNAKNTVYLQMNSLKPEDSAVYSCAADSHRSFSLYAYDSWGLGTQVTVSS | low polyreactivity |
| QVQLVESGGGLVQAGCSLRLSCAASGRTFGSYAMGWYRQAPGKERDLVAGITWRDGSTYYADSVKGRFTISRDNAKNTVYFQMNSLKPEDTAVYYCDKEAVRYYLFGMEYWGQGNQVTVSS | low polyreactivity |
| QVQLVESGGGLVQAGCSLRLSCAASGRTFSSYAMGWYRQSPGKERELVAAINRGGGSTYYADSVKGRFTISRDNAKNTVYLQMNSLKPEDTAVYYCNARSKRTYEYDYWGQGTQVTVSS | high polyreactivity |
| QVQLVESGGGLVQAGCSLRLSCAASGRTFYPYAMGWYRQAPRKERELVAAINWSGTSTYYADSVKGRFTISRDNAKNTVYLQMNSLKTEDTAVYYCAAKQYPVLHYSLTEADMDYWGQGTQVTVSS | low polyreactivity |
| QVQLVESGGGLVQAGCSLRLSCAASGRTFYTVYARGWYRQAPGKERELVAAITKDGTTTYYADSVKGRFTISRDNAKNTVYIEMNSLKQEDTAVYYCNADVSQPWGGGEYNYWGQGTQVTVSS | high polyreactivity |
| QVQLVESGGGLVQAGCSLRLSCAASGSIFALYDMGWYRQAPGKERELVAAISYRGGRTYYADSVKGRFTISRDNAKNTVYLQMNSLKPEDTAVYYCATDFPGNFDYWGQGTQVTVSS | low polyreactivity |
| QVQLVESGGGLVQAGCSLRLSCAASGSIFGWYAMGWYRQAPGTERELVAAITLIGGSTYYADSVKGRFTISRDNAKNTVYLQMNSLKPEDTAVYYCNAVWYWGDMDYWGQGTQVTVSS | low polyreactivity |
| QVQLVESGGGLVQAGCSLRLSCAASGSIFKQNTMGWYRQAPGKERELVAAISSGGSTYYADSVKGRFTISRDNAKNTVYLQMNSLKPEDTAVYYCAAVTVIGGEYDYWGQGTQVTVSS | low polyreactivity |
| QVQLVESGGGLVQAGCSLRLSCAASGSIFKRYTMGWYRQAPGKERELVAAISSRGGSTYYADSVKGRFTISRDNAKNTVYLQMNILKPEDTAVYYCNTKLHDGYGGWRYDYWGQGTQVTVSS | high polyreactivity |
| QVQLVESGGGLVQAGCSLRLSCAASGSIFTNYGMGWYRQAPGKERELVADIRARSGSTYYADSVKGRFTISRDNAKNTVYLQMNSLKPEDTAVYYCAARRTSYRFDYSAGYRYGYWGQGTQVTVSS | high polyreactivity |
| QVQLVESGGGLVQAGCSLRLSCAASGSIFVNKAMGWYRQAPGKERELVAAISSRSSRTFYADSVKGRFTISRDNSKNTVYLQMNSLKPEDTAVYYCAARRRLAWGQGTQVTVSS | high polyreactivity |
| QVQLVESGGGLVQAGCSLRLSCAASGSIFYGYAMGWYRQAPGKERELVAAISYSGDRTYYADSVKGRFTISRDNAKNSVYLQMNSLKPEDTAVYYCAAQRRYGDDYWGQGTQVTVSS | high polyreactivity |
| QVQLVESGGGLVQAGCSLRLSCAASGSIVDPYAMGWYRQAPRKEREWVAAISGSGGSTYYADSVKGRFTISRDNAKNTVYLQMNSLKPVDTSVYYCAAADAWWGRRYKYYHWGQGTQVTVSS | low polyreactivity |
| QVQLVESGGGLVQAGCSLRLSCAASGSIYPYAMGWYRQAPGKERELVDAISFSDDRTYYADSVKGRFTISRDIAKNNVYVQMNSLKPEDTAFYYCDAYYFSADEYEYVYWGQGTQVTLSS | high polyreactivity |

| Sequence | polyreactivity (PSR sort gate) |
| --- | --- |
| QVQLVESGGGLVQAGCSLRLSCAASGSTFGENAMGWYRQAPGKERELVAVITSDTSTYYADSVKGRFTISRDNAKNTVYLQMNSLKPEDTAVYYCAADWGGLWFWYEYWGQGTQVTVSS | low polyreactivity |
| QVQLVESGGGLVQAGCSLRLSCAASGSTFRPYAMGWYRQAPGKERELVAAINNSGGSTYYADSVKGRFTISRDNAKNTVYLQMNSLKPEDTAVYYCAAEWYYYFIIMNYWGQGTQVTVSS | high polyreactivity |
| QVQLVESGGGLVQAGCSLRLSCAASGSTFYAYTKGGYRQAPGKERELVAAISWSDGTTYADSVKGRFTISRDNAKNTVYLQMNSLKPEDTAVYYCATDDVGPGLGYNYWGEGTQVTVSS | low polyreactivity |
| QVQLVESGGGLVQAGCSLRLSCAASGSTFYYNAMGWYRQAPGKERELVAAITFTGGSTYADSVKGRFTISRDNAKNTVYLQLNSLKPEDTAVYYCAATIEGHDYLGTGYDYWGHGTQVTVSS | low polyreactivity |
| QVQLVESGGGLVQAGCSLRLSCAASGSTLNSYFMGWYRQAPGKERELVATIRSGSSTNYADSVKGRFTISRDNAKNTVYLQMNILKPEDTAVYYCAADAYSLCYDSWGQGTQVTVSS | low polyreactivity |
| QVQLVESGGGLVQAGCSLRLSCSASGSIFYSYAMGWYRQAPGKERELVAAITSVVSTNYADSVKGRFTISRDYAKNTVYLQMNRLKTEDTAVYYCAAGYLRLYYVCLDDSYGYDYWGQGTQVTVSS | low polyreactivity |
| QVQLVESGGGLVQAGCSLRLSCSASGSTFVAYAMGWYRQAPGTERELVAANTTGGSTNYADSVKGRFTISRDNAKNTVYLQMNSLKPEDTAVYYCATDSSTTWLRRATSKGPGEYWGQGTQVTVSS | low polyreactivity |
| QVQLVESGGGLVQAGCSLRLSSAASGFIYYRYAMGWYRQAHGKERELVAAISRSGGSTYYADSVKGRFTISRDNAKNTVYVQMNRLKPEDTAVYYCAADSGSLAPGNDYWGQGTQVTVSS | high polyreactivity |
| QVQLVESGGGLVQAGCSLRLTCAASGFIYLSYGMGWNRQAPGKERELVASITSDGGSTYYADSVKGRFTISRDNAKYTVYLQMNSLKPEDTAVYYCAADSVSPWYYGWYYRYRGYGYCGQGTQVTVSS | low polyreactivity |
| QVQLVESGGGLVQAGCSVRLSCAATGSSFVDNAMGWYRQAPGKERELVAANDGSADSTYYADSVKGRFTISRDNAKNTVYLQLNSLKPEATAVYYCAAVDYWTKFDYWGQGTQVTVSS | low polyreactivity |
| QVQLVESGGGLVQAGDSLRLSCAASGLTFTYYAMGWYRQAPGKERELVAAITGSGDRTYYADSVKGRFTISRDNAKNTVYLQMNSLKPEDTAVYYCARDRPGRATGFDYWGPGTQVTVSS | high polyreactivity |
| QVQLVESGGGLVQAGGCLRLSCAASGRTLGAYAMGWYRQAPGKEREFVASITYGGRTCYADSVKGRFTISRDNAMNTVFLQMNSLKPEDSAVYYCASKLPYRWYDYWGQGTQVTVSS | high polyreactivity |
| QVQLVESGGGLVQAGGCLRLSCAASGSIFAPIAMGWYRQAPGKERDLVAAITSGVGSTDYADSVKGRFTISRDNAKNNVYLQMNSLKPEDTAVYYCAADSSYLTYWEYDYWGQGTQVTVSS | low polyreactivity |
| QVQLVESGGGLVQAGGCLRLSCAASGSIFWGYAMGWYRPAPGKERELVAAITDSGGRTYYADSVKGRFTISRDNAKNTVYVQMNSQKPEDTAVYYCAADYYSQYYYYAVPDRDYWGQGTQVTVSS | low polyreactivity |
| QVQLVESGGGLVQAGGCLRLSCAPSGFIFGGYAMGWDRPAPGKEREVVAAISSSGGSTYYADSVKGRFTISRDNAKNTVYLQMNSLKPEDTAVYYCAARIQSVSSGRWFDYWGQGTQVTVSS | high polyreactivity |
| QVQLVESGGGLVQAGGGHRLSCAASGRTFTYNAMGWYRQAPGKERELVAAITSGGSTNYADSVKGRYTISRDNAKNTVYLQMNSLKPEDTAVYYCAADGDDYTTTEFDYWGQGTQVTVSS | low polyreactivity |
| QVQLVESGGGLVQAGGGLRLSCAASGRIFSRNVMGWYRQAPGKERELVAAISASGGSTYYADSVKGRFTISRDNAKNTVYLQMNSLKPEDTAVYYCAARRYPGRTATYYSWGQGTQVTVSS | high polyreactivity |
| QVQLVESGGGLVQAGGGLRLSCAASGRTFTYNAMGWYRQAPGKERELVAAITYDGGGTYADSVKGRFTISRDNAKNTVYLQMNSMKPEDSAVYYCNKGPDPGSFYDYWGQGTQVTVSS | low polyreactivity |
| QVQLVESGGGLVQAGGGLRLSCAASGSIFRSNTMGWYRQAPGKERELVAGISYSGGSTYADSVKGRFTISRDNAKNTVYLQMNSLKPEDTAVYYCARRVYSYDVLYFSYYYWGQGTQVTVSS | low polyreactivity |
| QVQLVESGGGLVQAGGIHRLSCPASGIIFYYYAMGWYRHAPGKESELVAAISWSGGSTYYADSVKGRFTISRDNAKYTVYLQMNSLKPEDTAVYYCAAAFSPGWWSRHTYDYDYWVQGTQVTVSS | high polyreactivity |
| QVQLVESGGGLVQAGGILRISCAASGRNLSRNAMGWYRQAPGKERELVAAISRSGSRTYYADSVKGRFTISRDNAKNSVYLLMNSLKPEDTAVYYCNAESYLSGWWYDYWGQGTQVTVSS | high polyreactivity |
